{"source": "patent US20230056252A1", "about": "(Gilead, published 2023)", "binders": {"B1": {"name": "huSP34.3.7 Fab-HF (Fab, V domains shown)", "VH": "EVQLVESGGGLVQPGGSLRLSCAASGFTFNTYAMNWVRQAPGKGLEWVGRIRSKYNNYATYYADSVKGRFTISRDDSKNSLYLQMNSLRTEDTAVYYCVRHGNFGHSYVSWFAYWGQGTLVTVSS", "VL": "QAVVTQEPSLTVSPGGTVTLTCRSSTGAVTTGHYANWVQQKPGQAPRGLIGGTNKRAPGVPARFSGSLLGGKAALTISGAQPEDEAEYYCALWYSNLWVFGGGTKLTVL"}, "B2": {"name": "huSP34.3.9 Fab-HF (Fab, V domains shown)", "VH": "B1 VH", "VL": "B1 VL with E7P, R23G, L69S"}, "B3": {"name": "huSP34.11.8 Fab-HF (Fab, V domains shown)", "VH": "B1 VH with N30S, D64A", "VL": "B1 VL with R23G, L97R"}, "B4": {"name": "huSP34.3.10 Fab-HF (Fab, V domains shown)", "VH": "B1 VH", "VL": "B1 VL with E7P, R23G, L69S, L97R"}, "B5": {"name": "huSP34.11.7 Fab-HF (Fab, V domains shown)", "VH": "B1 VH with N30S, D64A", "VL": "B1 VL"}, "B6": {"name": "huSP34.3.8 Fab-HF (Fab, V domains shown)", "VH": "B1 VH", "VL": "B1 VL with R23G, L97R"}, "B7": {"name": "hPGT121.66 AAS + W/huSP34.14.8scFv AAS + SAV + R (bispecific antibody, human IgG1, lambda, L234A L235A)", "chain": "EVQLVESGGGLVQPGGSLSLSCAASGFTFSTYAMNWVRQAPGKGLEWVGRIRSKYNNYATYYAASVKGRFTISRDDSKNTLYLQMNSLRTEDTAVYYCVRHGNFGHSYVSWFAYWGQGTLVTVSSGGGGSGGGGSGGGGSGGGGSQAVVTQEPSLTVSPGGTVTLTCGSSTGAVTTGHYANWVQQKPGQAPRGLIGGTNKRAPGVPARFSGSLLGGKAALTISGAQPEDEAEYYCALWYSNRWVFGGGTKLTVLEPKSSDKTHTCPPCPAPEAAGGPSVFLFPPKPKDTLMISRTPEVTCVVVDVSHEDPEVKFNWYVDGVEVHNAKTKPREEQYNSTYRVVSVLTVLHQDWLNGKEYKCKVSNKALPASIEKTISKAKGQPREPQVYTLPPSREEMTKNQVSLSCAVKGFYPSDIAVEWESNGQPENNYKTTPPVLDSDGSFFLVSKLTVDKSRWQQGNVFSCSVMHEALHNRYTQKSLSLSPGK", "heavy": "QMQLQESGPGLVKPSETLSLTCSVSGASISDSYWSWIRRSPGKGLEWIGYVHKSGDTNYNPSLKSRVHLSLDTSKNQVSLSLTGVTAADSGKYYCARTLHGRRIYGIVAFNEWFTYFYMDVWGTGTQVTVSSASTKGPSVFPLAPSSKSTSGGTAALGCLVKDYFPEPVTVSWNSGALTSGVHTFPAVLQSSGLYSLSSVVTVPSSSLGTQTYICNVNHKPSNTKVDKKVEPKSCDKTHTCPPCPAPEAAGGPSVFLFPPKPKDTLMISRTPEVTCVVVDVSHEDPEVKFNWYVDGVEVHNAKTKPREEQYNSTYRVVSVLTVLHQDWLNGKEYKCKVSNKALPASIEKTISKAKGQPREPQVYTLPPSREEMTKNQVSLWCLVKGFYPSDIAVEWESNGQPENNYKTTPPVLDSDGSFFLYSKLTVDKSRWQQGNVFSCSVMHEALHNHYTQKSLSLSPGK", "light": "not shown"}, "B8": {"name": "hPGT121.66 AAS + W/huSP34.28.8 scFv AAS + SAV + R (bispecific antibody, human IgG1, lambda, L234A L235A)", "chain": "B7 chain with G68S", "heavy": "B7 heavy", "light": "not shown", "notes": "also called 271; bispecific 271"}, "B9": {"name": "hPGT121.66 AAS + W/huSP34.33.8 scFv AAS + SAV + R (bispecific antibody, human IgG1, lambda, L234A L235A)", "chain": "B7 chain with S19R, G68S, Q84E", "heavy": "B7 heavy", "light": "not shown"}, "B10": {"name": "hPGT121.66 AAS + W/huSP34.25.8scFv AAS + SAV + R (bispecific antibody, human IgG1, lambda, L234A L235A)", "chain": "B7 chain with S19R, T60A, G68S", "heavy": "B7 heavy", "light": "not shown"}, "B11": {"name": "hPGT121.66 AAS + W/huSP34.27.8 scFv AAS + SAV + R (bispecific antibody, human IgG1, lambda, L234A L235A)", "chain": "B7 chain with T60E", "heavy": "B7 heavy", "light": "not shown", "notes": "also called 270; bispecific 270"}, "B12": {"name": "hPGT121.66 AAS + W/huSP34.26.8scFv AAS + SAV + R (bispecific antibody, human IgG1, lambda, L234A L235A)", "chain": "B7 chain with T60A", "heavy": "B7 heavy", "light": "not shown"}, "B13": {"name": "hPGT121.66 AAS + W/huSP34.19.8scFv AAS + SAV + R (bispecific antibody, human IgG1, lambda, L234A L235A)", "chain": "B7 chain with S19R, Q84E", "heavy": "B7 heavy", "light": "not shown"}, "B14": {"name": "huSP34.2.4 Fab-HF (Fab, V domains shown)", "VH": "B1 VH with N30S, D64A, R89K, V95M, H106N, Y114V", "VL": "B1 VL with R23G, G32S, N54S, G59W, V60T, I77L, N96A"}, "B15": {"name": "huSP34.5.6 Fab-HF (Fab, V domains shown)", "VH": "B1 VH with N30S, D76N, S80T, T90A, Y114V", "VL": "B1 VL with E7P, R23G, N54S, K55N, L69S, N96A, L97R"}, "B16": {"name": "huSP34.2.5 Fab-HF (Fab, V domains shown)", "VH": "B1 VH with N30S, D64A, R89K, V95M, H106N, Y114V", "VL": "B1 VL with R23G, N54S, K55N, G59W, V60T, I77L, N96A, L97R"}, "B17": {"name": "huSP34.5.2 Fab-HF (Fab, V domains shown)", "VH": "B1 VH with N30S, D76N, S80T, T90A, Y114V", "VL": "B1 VL with R23G, G32S, H33N, N54S, K55N, G59W, V60T, I77L"}, "B18": {"name": "huSP34.5.5 Fab-HF (Fab, V domains shown)", "VH": "B1 VH with N30S, D76N, S80T, T90A, Y114V", "VL": "B1 VL with R23G, N54S, K55N, G59W, V60T, I77L, N96A, L97R"}, "B19": {"name": "huSP34.4.4 Fab-HF (Fab, V domains shown)", "VH": "B1 VH with N30S, D64A, Y114V", "VL": "B1 VL with R23G, G32S, N54S, G59W, V60T, I77L, N96A"}, "B20": {"name": "huSP34.4.5 Fab-HF (Fab, V domains shown)", "VH": "B1 VH with N30S, D64A, Y114V", "VL": "B1 VL with R23G, N54S, K55N, G59W, V60T, I77L, N96A, L97R"}, "B21": {"name": "huSP34.5.4 Fab-HF (Fab, V domains shown)", "VH": "B1 VH with N30S, D76N, S80T, T90A, Y114V", "VL": "B1 VL with R23G, G32S, N54S, G59W, V60T, I77L, N96A"}, "B22": {"name": "huSP34.5.1 Fab-HF (Fab, V domains shown)", "VH": "B1 VH with N30S, D76N, S80T, T90A, Y114V", "VL": "B1 VL with G32S, H33N, G59W, V60T, L69I, G71D, I77L"}, "B23": {"name": "hPGT121.66 AAS + W/huSP34.34.10 scFv AAS + SAV + R (bispecific antibody, human IgG1, lambda, L234A L235A)", "chain": "B7 chain with S19R, S30N, T80S, R89K, V95M, E152P, L214S", "heavy": "B7 heavy", "light": "not shown"}}, "note": "Where a chain is given by its changes, count along the chain named.", "data": [{"biological_target": "T1, CD3 expressed on cell-surface of primary human T cells (human, UniProt P07766 23-207; P04234 22-171)", "T1 construct": "also called cell-surface CD3; human CD3", "experiment": "flow cytometry competition vs murine SP34-AF488 on human T cells, average", "units": {"IC50": "µg/mL"}, "values": [{"binder": "B1", "IC50": 0.23}, {"binder": "B2", "IC50": 0.28}, {"binder": "B3", "IC50": 0.22}, {"binder": "B4", "IC50": 0.15}, {"binder": "B5", "IC50": 0.32}, {"binder": "B6", "IC50": 0.15}]}, {"biological_target": "T2, biotinylated CD3 epsilon:delta heterodimer protein (Amsbio AMS.CDD-H52WO) (Homo sapiens (Human), UniProt P07766 23-126; P04234 22-105)", "T2 construct": "also called CD3 heterodimer", "experiment": "BLI (Octet), CD3 on SA sensor, bispecific analyte", "units": {"Kd": "nM", "koff": "s⁻¹", "kon": "M⁻¹ s⁻¹"}, "values": [{"binder": "B7", "Kd": 24.3, "koff": 0.000932, "kon": 39000}, {"binder": "B8", "Kd": 15.8, "koff": 0.00134, "kon": 84600}, {"binder": "B9", "Kd": 15.3, "koff": 0.00118, "kon": 77400}, {"binder": "B10", "Kd": 10.6, "koff": 0.000928, "kon": 87600}, {"binder": "B11", "Kd": 13.2, "koff": 0.001, "kon": 76300}, {"binder": "B12", "Kd": 9.3, "koff": 0.000504, "kon": 55900}, {"binder": "B13", "Kd": 14.7, "koff": 0.00104, "kon": 72200}]}, {"biological_target": "T1, CD3 expressed on cell-surface of …", "experiment": "flow cytometry competition vs murine SP34-AF488 on human T cells, n = 2", "units": {"IC50": "µg/mL"}, "values": [{"binder": "B1", "IC50": 0.15}, {"binder": "B2", "IC50": 0.17}, {"binder": "B3", "IC50": 0.13}, {"binder": "B4", "IC50": 0.09}, {"binder": "B5", "IC50": 0.18}, {"binder": "B6", "IC50": 0.1}]}, {"biological_target": "T1, CD3 expressed on cell-surface of …", "experiment": "flow cytometry competition vs murine SP34-AF488 on human T cells, n = 1", "units": {"IC50": "µg/mL"}, "values": [{"binder": "B14", "IC50": "> 20"}, {"binder": "B15", "IC50": "> 20"}, {"binder": "B16", "IC50": "> 20"}, {"binder": "B17", "IC50": "> 20"}, {"binder": "B18", "IC50": "> 20"}, {"binder": "B19", "IC50": "> 20"}, {"binder": "B20", "IC50": "> 20"}, {"binder": "B21", "IC50": "> 20"}, {"binder": "B22", "IC50": "> 20"}]}, {"biological_target": "T1, CD3 expressed on cell-surface of …", "experiment": "flow cytometry competition vs murine SP34-AF488 on human T cells, n = 1", "remark": "another data set of the same source", "units": {"IC50": "µg/mL"}, "values": [{"binder": "B1", "IC50": 0.3}, {"binder": "B2", "IC50": 0.39}, {"binder": "B3", "IC50": 0.3}, {"binder": "B4", "IC50": 0.2}, {"binder": "B5", "IC50": 0.45}, {"binder": "B6", "IC50": 0.2}]}, {"biological_target": "T1, CD3 expressed on cell-surface of …", "experiment": "flow cytometry competition vs murine SP34-AF488 on human T cells, n = 2", "remark": "another data set of the same source", "units": {"IC50": "µg/mL"}, "values": [{"binder": "B14", "IC50": "> 20"}, {"binder": "B15", "IC50": "> 20"}, {"binder": "B16", "IC50": "> 20"}, {"binder": "B17", "IC50": "> 20"}, {"binder": "B18", "IC50": "> 20"}, {"binder": "B19", "IC50": "> 20"}, {"binder": "B20", "IC50": "> 20"}, {"binder": "B21", "IC50": "> 20"}, {"binder": "B22", "IC50": "> 20"}]}, {"biological_target": "T3, biotinylated Human CD3E and CD3D (Acro Biosystems Cat CDD-H82W1) (human, UniProt P07766 23-126; P04234 22-105)", "T3 construct": "also called biotinylated CD3", "experiment": "SPR (Biacore 4000), CD3 captured on streptavidin chip;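 also: bispecific antibodies or Fabs injected at several concentrations over CD3 surfaces of varying density, sensorgrams fitted with a simple kinetic model to obtain association, dissociation and equilibrium constants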", "units": {"Kd": "nM", "koff": "s⁻¹", "kon": "M⁻¹ s⁻¹"}, "values": [{"binder": "B23", "Kd": 3.9, "koff": 0.0102, "kon": "2.6e+06"}]}, {"biological_target": "T2, biotinylated CD3 epsilon:delta …", "experiment": "BLI (Octet), CD3 on SA sensor, bispecific analyte", "remark": "another data set of the same source", "units": {"Kd": "nM", "koff": "s⁻¹", "kon": "M⁻¹ s⁻¹"}, "values": [{"binder": "B23", "Kd": 8.4, "koff": 0.00083, "kon": 120000}]}]}
